Laboratory results from article PMC2903362 (The Journal of Biological Chemistry, 2010).

T1: FlK (fluoroacetyl-CoA thioesterase; WtFlK) (Streptantibioticus cattleyicolor, UniProt Q1EMV2)
T1 sequence (Q1EMV2 1-139): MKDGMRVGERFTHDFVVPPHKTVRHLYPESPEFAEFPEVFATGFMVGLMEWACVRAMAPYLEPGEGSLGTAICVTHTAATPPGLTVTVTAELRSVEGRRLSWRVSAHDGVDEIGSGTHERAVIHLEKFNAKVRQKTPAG


Tests used:
[1] = molecular target: T1, FlK (fluoroacetyl-CoA thioesterase; WtFlK); experiment: X-ray crystal structure of complex; type: binding; settings: 10 mM FAcCPan, 100 mM CHES pH 9.5, 0.8 M trisodium citrate; active site
[2] = molecular target: the molecule itself; experiment: crystal structure
[3] = molecular target: the molecule itself; experiment: SEC
[4] = molecular target: the molecule itself; experiment: crystal structure; remark: listed apart in the source

Molecule | X-ray crystal structure of complex [1] | stoichiometry N [2] | stoichiometry N [3] | stoichiometry N [4]
CC(C)(CO)[C@@H](O)C(=O)NCCC(=O)NCCCC(=O)CF [FAcCPan] | WtFlK in complex with two analogues of fluoroacetyl-pantetheine, FAcCPan, and FAcOPan |  |  | 
wild-type FlK (fluoroacetyl-CoA thioesterase FlK) (enzyme, Streptomyces cattleya) MKDGMRVGERFTHDFVVPPHKTVRHLYPESPEFAEFPEVFATGFMVGLMEWACVRAMAPYLEPGEGSLGTAICVTHTAATPPGLTVTVTAELRSVEGRRLSWRVSAHDGVDEIGSGTHERAVIHLEKFNAKVRQKTPAG |  | 4 | 2 | 
FlK T42A mutant (enzyme, Streptomyces cattleya) MKDGMRVGERFTHDFVVPPHKTVRHLYPESPEFAEFPEVFAAGFMVGLMEWACVRAMAPYLEPGEGSLGTAICVTHTAATPPGLTVTVTAELRSVEGRRLSWRVSAHDGVDEIGSGTHERAVIHLEKFNAKVRQKTPAG |  |  | 2 | 4
selenomethionine-labelled wild-type FlK (enzyme, Streptomyces cattleya, L-selenomethionine incorporated) MKDGMRVGERFTHDFVVPPHKTVRHLYPESPEFAEFPEVFATGFMVGLMEWACVRAMAPYLEPGEGSLGTAICVTHTAATPPGLTVTVTAELRSVEGRRLSWRVSAHDGVDEIGSGTHERAVIHLEKFNAKVRQKTPAG |  |  |  | 2
FlK E50A mutant (enzyme, Streptomyces cattleya) MKDGMRVGERFTHDFVVPPHKTVRHLYPESPEFAEFPEVFATGFMVGLMAWACVRAMAPYLEPGEGSLGTAICVTHTAATPPGLTVTVTAELRSVEGRRLSWRVSAHDGVDEIGSGTHERAVIHLEKFNAKVRQKTPAG |  |  | 2 | 
FlK T42S mutant (enzyme, Streptomyces cattleya) MKDGMRVGERFTHDFVVPPHKTVRHLYPESPEFAEFPEVFASGFMVGLMEWACVRAMAPYLEPGEGSLGTAICVTHTAATPPGLTVTVTAELRSVEGRRLSWRVSAHDGVDEIGSGTHERAVIHLEKFNAKVRQKTPAG |  |  | 2 | 4
